In the supplement of paper PMC10567573:

B1: POMT2 (parent)
chain: LRGGGQVLLGWTLHYFPFFLMGRV
B2: SLC19A2 (parent)
chain: FASLRPSEPFLTPYLLGPDKNLTE

Variants of: B1
Assay: protein stability index of a GFP-peptide fusion (GPS, HEK-293T) (PSI 1-6); higher = more stable
Conditions: c terminus: a fixed tail appended
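Further: lentivirally expressed fusions sorted by FACS into six bins by GFP to DsRed ratio, PSI derived from sequencing read proportions per bin multiplied by bin number.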

Protein stability index, by site and new letter:
G22: Q 1.28; P 2.64; C 1.58; D 3.12; L 3.83; A 3.58
V24: C 1.83; Q 2.04; R 3.15; H 3.69; A 1.72; Y 3.27; I 2.03
F18: E 4.02; N 2.04; V 3.11; T 1.98; Y 1.42; W 1.2
P17: W 3.06
L20: W 2.38; P 5.95; S 1.7; F 4.18; N 3.25
M21: S 2.79; N 1.43; W 4.41; A 3.45; K 2.16
R23: Y 1.9; S 2.85; C 2.79; W 3.02; T 3.19; E 3.15; D 1.88; I 4.29
F19: Y 2.17; W 3.22; N 2.04; Q 4.97; G 4.57; A 2.89; S 3.98

Variants of: B2
Assay: as above
Conditions: c terminus: a fixed tail appended

Protein stability index of substitutions, site by site:
E8: Y 1.72; I 2.19; A 1.49; W 2.48; N 2.3; D 1.63; H 1.66; P 2.12; Q 1.69; L 1.26; S 1.98; T 1.81; G 1.99; C 1.68; M 1.88; K 2.1; V 2.14; F 1.78; R 1.59
A2: T 1.97; C 1.51; L 2.04; N 3.64; W 2.21; D 3.64; E 3.63; R 3.08; F 2.19; Y 2.05; K 2.84; S 3.02; G 2.74; I 1.66; V 2.5; P 2.6; M 2.36; H 1.63; Q 1.72
R5: K 1.88; P 2.36; I 2.13; C 1.99; H 2.17; D 1.73; S 2.07; G 1.57; F 2.32; Q 2.34; A 2.03; W 2.43; E 2.58; V 2.6; Y 2.39; M 1.94; L 2.1; N 1.68; T 1.98
L16: D 2.65; F 2.04; E 2.21; C 2.07; A 2.31
F10: T 2.15; Q 2.44; N 3.22; G 2.3; K 2.72; Y 2.04; E 2.66; A 2.52; S 2.16; L 2.12; H 2.61; C 2.11; V 2.67; D 3.28; P 3.15; M 2.35; I 2.23; R 2.94; W 2.88
S3: I 1.69; Y 2.53; Q 2.61; C 1.23; T 2.83; P 2.43; V 2.65; H 1.87; D 3.05; W 1.54; E 1.45; K 2.78; N 2.78; A 1.59; L 1.76; M 1.74; R 1.71; F 1.93; G 1.65
S7: K 1.98; G 2.07; A 1.68; V 2.27; W 3.01; Y 1.42; C 2.28; H 2.03; L 1.72; E 1.82; D 1.92; I 1.5; T 1.75; P 1.87; Q 1.76; F 2.01; R 1.71; N 1.9; M 1.24
L11: W 3.29; H 2.03; M 2.18; P 2.03; V 1.61; A 2.42; F 2.63; C 1.86; S 1.91; I 1.58; D 2.29; N 1.78; Q 2.09; R 1.81; T 1.94; G 2.06; E 2.88; K 2.03
T12: K 1.88; W 2.17; Y 2.24; E 3.47; L 1.67; D 1.97; F 1.74; Q 2.3; V 1.28; G 2.35; M 1.93; R 1.74; N 2.05; I 2; A 1.79; P 1.89; C 2.1; H 1.72; S 1.93
P6: M 1.36; Y 1.83; V 1.9; R 2.12; H 1.54; S 1.78; N 1.76; L 1.8; I 3.26; C 1.99; Q 2.16; A 1.12; G 1.71; D 2.17; F 1.58; K 2.13; E 1.65; W 2.98; T 2.7
L4: G 2.93; M 1.48; T 2.23; N 1.74; V 1.86; Y 1.7; S 1.61; R 2.24; F 1.93; I 2.44; A 1.89; H 1.69; Q 2.15; E 2.65; P 2.98; K 1.48; D 2.76; W 3.5; C 1.61
Y14: I 2.66; D 2.49; C 2.27; G 2.18; M 2.6; P 3.25; T 2.58; F 2.38; E 2.76; A 2.42; H 2.57; W 1.46; N 3.22; R 2.87; Q 2.69; S 2.21; L 2.06; V 2.22; K 2.42
F1: G 4.22; M 3.65; E 4.2; S 4.12; H 3.58; Q 4.19; C 2.8; N 3.81; I 3.47; L 2.93; K 3.79; A 4.25; D 4.38; P 3.64; Y 1.5; T 3.44; W 2.77; R 3.75; V 3.4
P9: S 1.61; T 2.48; W 2.12; D 2.85; M 2.37; E 1.82; N 2.52; V 2.9; R 1.39; G 2.18; H 1.67; A 2.27; Q 1.98; I 1.77; C 2.26; K 1.78; L 2.5; F 3.54; Y 2.29
L15: R 1.68; K 1.84; Y 1.78; W 1.44; M 2.23; T 2.19; V 1.86; N 2.3; S 1.79; Q 1.76; A 1.91; H 1.55; G 1.77; D 2.43; I 1.99; E 2.03; P 1.97; F 1.67; C 2.23
P13: M 1.46; L 2.14; V 2.02; I 2.91; R 1.68; G 1.59; C 1.84; T 1.66; H 1.76; D 2.28; N 1.86; F 2.1; S 1.99; Q 1.94; E 1.95; K 2.56; A 2.58; W 1.88; Y 1.58
